Patent publication US8591913B2, “Methods of decreasing adipose tissue” (Toru Miyazaki, priority 2009, dated 2013)

B1: AIM: apoptosis inhibitor of macrophage, secretory protein with three SRCR domains; recombinant mouse and human AIM in Example 2, mouse AIM in Examples 3-16 (protein)
chain: ESPTKVQLVGGAHRCEGRVEVEHNGQWGTVCDDGWDRRDVAVVCRELNCGAVIQTPRGASYQPPASEQRVLIQGVDCNGTEDTLAQCELNYYVFDCSHEEDAGAQCENPDSDLLFIPEDVRLVDGPGHCQGRVEVLHQSQWSTVCKAGWNLQVSKVVCRQLGCGRALLTYGSCNKNTQGKGPIWMGKMSCSGQEANLRSCLLSRLENNCTHGEDTWMECEDPFELKLVGGDTPCSGRLEVLHKGSWGSVCDDNWGEKEDQVVCKQLGCGKSLHPSPKTRKIYGPGAGRIWLDDVNCSGKEQSLEFCRHRLWGYHDCTHKEDVEVICTDFDV
B2: mouse AIM: protein consisting of the amino acid sequence shown in SEQ ID NO: 5; recombinant, purified from HEK293T culture supernatant (protein)
chain: MAPLFNLMLAILSIFVGSCFSESPTKVQLVGGAHRCEGRVEVEHNGQWGTVCDDGWDRRDVAVVCRELNCGAVIQTPRGASYQPPASEQRVLIQGVDCNGTEDTLAQCELNYYVFDCSHEEDAGAQCENPDSDLLFIPEDVRLVDGPGHCQGRVEVLHQSQWSTVCKAGWNLQVSKVVCRQLGCGRALLTYGSCNKNTQGKGPIWMGKMSCSGQEANLRSCLLSRLENNCTHGEDTWMECEDPFELKLVGGDTPCSGRLEVLHKGSWGSVCDDNWGEKEDQVVCKQLGCGKSLHPSPKTRKIYGPGAGRIWLDDVNCSGKEQSLEFCRHRLWGYHDCTHKEDVEVICTDFDV
modifications: mouse
notes: recombinant, purified from HEK293T culture supernatant

Columns and labels:
3T3-L1 preadipocytes = assay: Differentiation of 3T3-L1 preadipocytes into mature adipocytes, oil-red-o staining; assay type: cell-based, mouse; settings: AIM concentration reduced to 1 μg/mL and 0.1 μg/mL; data not shown
obese AIM-/- mice = assay: Intravenous administration of AIM to obese AIM-/- mice; assay type: in vivo, mouse
Description: Obese AIM^−/− mice were produced by giving HFD for 20 weeks or more. Meanwhile, a purified recombinant mouse AIM protein was prepared, and an AIM solution in which the AIM protein had been dissolved at a concentration of 0.2 mg/mL in phosphate buffered saline (PBS, pH 7.4) was prepared as an injection. Then, the AIM injection was administered to the mice from the tail vein twice a week for 4 weeks.
A dosage was 1 μg per 1 g of the body weight of the mouse. The dosage was determined based on the AIM concentration in the culture medium in the above-mentioned in vitro experiments, by considering that the AIM concentration in the blood of the mouse was a similar level to the AIM concentration in the culture medium.
In addition, as a control, the same amount of bovine serum albumin (BSA) was administered via the tail vein in the same schedule to the obese AIM^−/− mice produced by giving HFD for 20 weeks or more. Then, the body weight of the mice after being administered was measured, and the visceral white adipose tissue was collected and its weight was measured.
FIG. 22A and FIG. 22B show the results of observing adipose tissue sections stained with hematoxylin and eosin (HE) under a microscope.

endogenous FAS = molecular target: T1, endogenous FAS (Mus musculus, UniProt P19096); assay: Co-precipitation of endocytosed HA-tagged rAIM with endogenous FAS from adipose tissue lysates; assay type: binding; settings: HA-tagged rAIM injected into AIM-/- mice, adipose tissue lysate, anti-HA antibody, Western blotting for FAS
T1 construct: from tissue; host or cells: epididymal adipose tissue of obese AIM-/- mice
Description: Further, the endocytosed rAIM was precipitated using lysates derived from those adipose tissues to examine whether endogenous FAS was co-precipitated or not. That is, the presence of FAS in the precipitate was analyzed by Western blotting using HA-tagged rAIM and an anti-HA antibody.
It was confirmed that AIM was bound to FAS both in vivo and in vitro. That is, mouse rAIM tagged with HA in a total amount of 100 μg was directly injected in several sites in the epididymal adipose tissue in the obese AIM^−/− mouse. At 3 hours after the injection, the epididymal adipose tissues were collected. Then, endocytosed rAIM was precipitated from a lysate of the adipose tissues using an anti-HA antibody. Then, it was analyzed by immunoblotting (WB) whether FAS was present in the resulting precipitate.

[1] = tested on: adipocytes in the adipose tissue of AIM-/- mice; assay: Endocytosis of injected rAIM into adipose tissue of AIM-/- mice (histology); assay type: in vivo, mouse; settings: 3 hours
Description: Further, mouse rAIM was directly injected into epididymal adipose tissue in obese AIM^−/− mice, and the adipose tissue was histologically analyzed. That is, total 100 μg of rAIM was directly injected into several sites of the epididymal adipose tissue. At 3 hours after the injection, tissue sections from the epididymal adipose tissue were made, and the tissue sections were stained with the anti-AIM antibody and the anti-macrophage antibody.
In addition, rAIM was systemically administered by intravenous injection to AIM^−/− mice, and subsequently adipose tissues were histologically analyzed. That is, 200 μg of rAIM was systemically administered by the intravenous injection to the AIM^−/− mice. At 3 hours after the injection, tissue sections were made from the epididymal adipose tissue, and the tissue sections were stained with the anti-AIM antibody and the anti-macrophage antibody.

AIM-/- mice = assay: Intraperitoneal rAIM in AIM-/- mice given HFD; assay type: in vivo, mouse
Description: While giving HFD to AIM^−/− mice for 15 weeks, mouse rAIM was intraperitoneally injected into the AIM^−/− mice for the last 9 weeks to examine whether the administration of rAIM inhibits the increase of the adipose tissue mass. That is, rAIM was intraperitoneally injected three times a week into the AIM^−/− mice ((150 μg/injection/mouse)×(three times/week)=(450 μg/mouse/week)) over the last 9 weeks, and the body weight, the weight of the visceral fat, and the weight of the subcutaneous fat were measured in the 15th week. The body weight, the weight of the visceral fat, and the weight of the subcutaneous fat were also measured in the AIM^−/− mice as the control to which BSA (bovine serum albumin) had been intraperitoneally administered in the same administration schedule.
FIG. 30A, FIG. 30B, and FIG. 30C show the results (n=3) of measuring the body weight (Body) (g), the weight of the visceral adipose tissue (Visceral fat) (g), and the amount of the subcutaneous adipose tissue (Subcutaneous fat) (g) in the AIM/mice to which BSA was administered (BSA) and the AIM^−/− mice to which rAIM was administered (rAIM), respectively.
Further, mRNA levels of FSP27, perilipin, and adipophilin were evaluated in each of the AIM^−/− mice to which BSA was administered and the AIM^−/− mice to which rAIM was administered. The mRNA levels were measured using RNA isolated from epididymal fat and using QPCR.
FIG. 31 illustrates the mRNA levels (n=3) of FSP27, perilipin, and adipophilin evaluated in each of the AIM^−/− mice to which BSA was administered (BSA) and the AIM^−/− mice to which rAIM was administered (rAIM). It should be noted that values illustrated in FIG. 31 were normalized to GAPDH and represented as expressions relative to the results in the mice to which BSA had been injected.

[2] = AIM iv versus albumin, HE-stained sections
[3] = mouse AIM 1 μg per 1 g body weight, tail vein, twice a week for 4 weeks, versus BSA
[4] = epididymal fat, QPCR, rAIM ip versus BSA
[5] = mouse rAIM ip 150 μg/injection/mouse, three times/week, last 9 of 15 weeks HFD, versus BSA

T1 sequence (P19096 whole entry): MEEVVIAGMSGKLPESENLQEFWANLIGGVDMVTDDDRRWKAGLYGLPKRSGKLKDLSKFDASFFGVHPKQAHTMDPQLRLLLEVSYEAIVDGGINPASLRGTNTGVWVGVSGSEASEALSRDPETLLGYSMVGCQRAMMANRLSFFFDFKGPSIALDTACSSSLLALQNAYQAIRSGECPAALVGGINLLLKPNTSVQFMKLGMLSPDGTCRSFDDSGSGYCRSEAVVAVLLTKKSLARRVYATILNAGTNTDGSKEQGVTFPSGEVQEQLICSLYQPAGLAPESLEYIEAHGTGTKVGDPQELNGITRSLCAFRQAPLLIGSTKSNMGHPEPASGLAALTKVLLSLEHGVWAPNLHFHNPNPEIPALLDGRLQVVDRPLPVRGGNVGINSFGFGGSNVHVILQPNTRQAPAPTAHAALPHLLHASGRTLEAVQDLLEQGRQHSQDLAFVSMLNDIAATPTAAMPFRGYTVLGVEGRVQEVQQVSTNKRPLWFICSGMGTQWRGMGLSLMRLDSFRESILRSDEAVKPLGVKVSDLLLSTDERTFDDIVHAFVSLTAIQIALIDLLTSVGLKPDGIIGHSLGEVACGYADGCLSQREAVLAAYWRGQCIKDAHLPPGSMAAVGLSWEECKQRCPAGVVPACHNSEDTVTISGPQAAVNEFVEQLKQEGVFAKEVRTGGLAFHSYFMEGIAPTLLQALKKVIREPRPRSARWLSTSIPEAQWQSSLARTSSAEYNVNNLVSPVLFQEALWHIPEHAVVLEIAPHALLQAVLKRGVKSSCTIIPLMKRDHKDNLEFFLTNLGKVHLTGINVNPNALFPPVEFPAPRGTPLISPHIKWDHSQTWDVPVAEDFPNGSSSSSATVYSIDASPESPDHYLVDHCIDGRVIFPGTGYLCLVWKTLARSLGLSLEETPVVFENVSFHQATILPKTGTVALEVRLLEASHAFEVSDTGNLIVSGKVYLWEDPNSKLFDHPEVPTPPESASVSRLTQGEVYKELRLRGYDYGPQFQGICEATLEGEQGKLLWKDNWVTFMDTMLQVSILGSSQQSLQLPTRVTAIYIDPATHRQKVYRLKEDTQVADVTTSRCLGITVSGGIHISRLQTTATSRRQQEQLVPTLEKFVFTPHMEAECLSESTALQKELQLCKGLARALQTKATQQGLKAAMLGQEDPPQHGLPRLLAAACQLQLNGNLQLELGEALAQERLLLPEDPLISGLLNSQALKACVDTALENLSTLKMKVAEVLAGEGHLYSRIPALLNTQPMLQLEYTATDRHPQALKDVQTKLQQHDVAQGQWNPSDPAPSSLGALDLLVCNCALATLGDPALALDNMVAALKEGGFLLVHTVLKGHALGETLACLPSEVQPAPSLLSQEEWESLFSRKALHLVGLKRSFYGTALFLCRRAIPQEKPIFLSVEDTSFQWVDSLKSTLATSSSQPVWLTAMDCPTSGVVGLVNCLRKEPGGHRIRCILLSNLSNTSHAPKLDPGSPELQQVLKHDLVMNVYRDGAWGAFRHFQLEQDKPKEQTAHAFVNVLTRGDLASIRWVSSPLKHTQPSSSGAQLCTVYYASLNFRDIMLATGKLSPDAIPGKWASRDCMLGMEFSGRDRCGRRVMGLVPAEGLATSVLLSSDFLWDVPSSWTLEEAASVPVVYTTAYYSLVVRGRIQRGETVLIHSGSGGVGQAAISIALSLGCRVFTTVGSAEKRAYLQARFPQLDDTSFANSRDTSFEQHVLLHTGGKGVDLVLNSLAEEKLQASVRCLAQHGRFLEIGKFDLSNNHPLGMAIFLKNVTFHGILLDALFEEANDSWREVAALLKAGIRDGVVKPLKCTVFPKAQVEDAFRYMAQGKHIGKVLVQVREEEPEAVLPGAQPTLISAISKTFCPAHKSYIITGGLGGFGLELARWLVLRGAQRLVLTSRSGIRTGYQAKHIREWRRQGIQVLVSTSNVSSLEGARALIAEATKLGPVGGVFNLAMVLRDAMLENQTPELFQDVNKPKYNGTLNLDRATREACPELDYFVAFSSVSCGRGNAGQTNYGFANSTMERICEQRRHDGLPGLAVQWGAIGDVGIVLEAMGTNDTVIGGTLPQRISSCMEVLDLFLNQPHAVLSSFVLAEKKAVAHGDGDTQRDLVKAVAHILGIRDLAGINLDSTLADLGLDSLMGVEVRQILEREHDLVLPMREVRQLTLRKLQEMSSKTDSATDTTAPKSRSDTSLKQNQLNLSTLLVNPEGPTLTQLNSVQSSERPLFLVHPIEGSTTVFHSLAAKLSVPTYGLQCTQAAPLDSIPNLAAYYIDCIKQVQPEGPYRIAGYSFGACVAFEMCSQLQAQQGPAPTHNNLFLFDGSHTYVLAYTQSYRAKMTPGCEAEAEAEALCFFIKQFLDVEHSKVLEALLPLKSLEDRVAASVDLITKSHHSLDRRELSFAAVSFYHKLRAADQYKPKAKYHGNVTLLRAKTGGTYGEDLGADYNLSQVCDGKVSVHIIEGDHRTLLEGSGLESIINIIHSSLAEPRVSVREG

Row | Molecule | differentiation inhibitory effect by AIM (3T3-L1 preadipocytes) | accumulation of macrophages in the adipose tissues (obese AIM-/- mice; [2]) | size of adipocytes in the adipose tissues (obese AIM-/- mice; [2]) | amount of food intake (obese AIM-/- mice; administration of AIM, iv) | histology of adipose tissues, observed locally (in a spotty pattern) (obese AIM-/- mice; mouse AIM 1 μg per 1 g body weight, tail vein, twice a week for 4 weeks) | body weight (obese AIM-/- mice; [3]) | total weight of the adipose tissue (obese AIM-/- mice; [3]) | lipolysis in the adipose tissues of the obese mouse (obese AIM-/- mice; systemic intravenous administration of purified AIM protein) | co-precipitation of endocytosed rAIM and endogenous FAS (endogenous FAS) | staining of macrophages in the adipose tissues with the anti-AIM antibody ([1]; 200 μg rAIM intravenous injection) | signals from the endocytosed rAIM in the adipocytes in the adipose tissues ([1]; 200 μg rAIM intravenous injection, levels lower than after direct injection) | endocytosis of exogenous rAIM into adipocytes in the adipose tissue ([1]; total 100 μg mouse rAIM directly injected into epididymal adipose tissue of obese AIM-/- mice) | mRNA level of FSP27 (AIM-/- mice; [4]) | mRNA level of adipophilin (AIM-/- mice; [4]) | mRNA level of perilipin (AIM-/- mice; [4]) | body weight gain (AIM-/- mice; [5]) | increase in weight of the subcutaneous fat (AIM-/- mice; [5]) | increase in weight of the visceral fat (AIM-/- mice; [5])
1 | B1 | reduced | remarkable accumulation | remarkably reduced | No change | shrinkage and lysis of adipocytes | no significant difference | no significant difference | induced lipolysis |  |  |  |  |  |  |  |  |  | 
2 | B2 |  |  |  |  |  |  |  |  | co-precipitated | also stained | detected | endocytosed into adipocytes | low | low | low | remarkably small | remarkably small | remarkably small
